{"source": "patent US20210388087A1", "about": "(Chugai, published 2021)", "binders": {"B1": {"name": "H183/L072 VL K50D (antibody, name in Kabat numbering, V domains shown)", "VH": "QVQLVESGGGLVQPGRSLRLSCAASGFTFSNAWMHWVRQAPGKGLEWVAQIKDKGNAYAAYYAPSVKGRFTISRDDSKNSIYLQMNSLKTEDTAVYYCHYVHYASASTVLPAFGVDAWGQGTTVTVSS", "VL": "DIVMTQSPLSLPVTPGEPASISCQASQELVHMNRNTYLHWYQQKPGQAPRLLIYDVSNRFPGVPDRFSGSGSGTDFTLKISRVEAEDVGVYYCAQGTSVPFTFGQGTKLEIK", "notes": "Dual-Ig"}, "B2": {"name": "H183/L072 VL K50L (antibody, name in Kabat numbering, V domains shown)", "VH": "B1 VH", "VL": "B1 VL with D55L", "notes": "Dual-Ig"}, "B3": {"name": "H183/L072 VL K50V (antibody, name in Kabat numbering, V domains shown)", "VH": "B1 VH", "VL": "B1 VL with D55V", "notes": "Dual-Ig"}, "B4": {"name": "H183/L072 VL L27bM (antibody, name in Kabat numbering, V domains shown)", "VH": "B1 VH", "VL": "B1 VL with L29M, D55K", "notes": "Dual-Ig"}, "B5": {"name": "H183/L072 VL L27bT (antibody, name in Kabat numbering, V domains shown)", "VH": "B1 VH", "VL": "B1 VL with L29T, D55K", "notes": "Dual-Ig"}, "B6": {"name": "H183/L072 VL K50G (antibody, name in Kabat numbering, V domains shown)", "VH": "B1 VH", "VL": "B1 VL with D55G", "notes": "Dual-Ig"}, "B7": {"name": "H183/L072 VL L27bK (antibody, name in Kabat numbering, V domains shown)", "VH": "B1 VH", "VL": "B1 VL with L29K, D55K", "notes": "Dual-Ig"}, "B8": {"name": "H183/L072 VL L27bG (antibody, name in Kabat numbering, V domains shown)", "VH": "B1 VH", "VL": "B1 VL with L29G, D55K", "notes": "Dual-Ig"}, "B9": {"name": "H183/L072 VL L27bD (antibody, name in Kabat numbering, V domains shown)", "VH": "B1 VH", "VL": "B1 VL with L29D, D55K", "notes": "Dual-Ig"}, "B10": {"name": "H183/L072 VL K50R (antibody, name in Kabat numbering, V domains shown)", "VH": "B1 VH", "VL": "B1 VL with D55R", "notes": "Dual-Ig"}, "B11": {"name": "H183/L072 VL K50S (antibody, name in Kabat numbering, V domains shown)", "VH": "B1 VH", "VL": "B1 VL with D55S", "notes": "Dual-Ig"}, "B12": {"name": "H183/L072 VL L33A (antibody, name in Kabat numbering, V domains shown)", "VH": "B1 VH", "VL": "B1 VL with L38A, D55K", "notes": "Dual-Ig"}, "B13": {"name": "H183/L072 VL K50I (antibody, name in Kabat numbering, V domains shown)", "VH": "B1 VH", "VL": "B1 VL with D55I", "notes": "Dual-Ig"}, "B14": {"name": "H183/L072 VL L27bS (antibody, name in Kabat numbering, V domains shown)", "VH": "B1 VH", "VL": "B1 VL with L29S, D55K", "notes": "Dual-Ig"}, "B15": {"name": "H183/L072 VL L27bV (antibody, name in Kabat numbering, V domains shown)", "VH": "B1 VH", "VL": "B1 VL with L29V, D55K", "notes": "Dual-Ig"}, "B16": {"name": "H183/L072 VL L27bA (antibody, name in Kabat numbering, V domains shown)", "VH": "B1 VH", "VL": "B1 VL with L29A, D55K", "notes": "Dual-Ig"}, "B17": {"name": "H183/L072 VL K50M (antibody, name in Kabat numbering, V domains shown)", "VH": "B1 VH", "VL": "B1 VL with D55M", "notes": "Dual-Ig"}, "B18": {"name": "H183/L072 VL L27bH (antibody, name in Kabat numbering, V domains shown)", "VH": "B1 VH", "VL": "B1 VL with L29H, D55K", "notes": "Dual-Ig"}, "B19": {"name": "H183/L072 VL K50T (antibody, name in Kabat numbering, V domains shown)", "VH": "B1 VH", "VL": "B1 VL with D55T", "notes": "Dual-Ig"}, "B20": {"name": "H183/L072 VL L27bQ (antibody, name in Kabat numbering, V domains shown)", "VH": "B1 VH", "VL": "B1 VL with L29Q, D55K", "notes": "Dual-Ig"}, "B21": {"name": "H183/L072 VL L33E (antibody, name in Kabat numbering, V domains shown)", "VH": "B1 VH", "VL": "B1 VL with L38E, D55K", "notes": "Dual-Ig"}, "B22": {"name": "H183/L072 VL K50W (antibody, name in Kabat numbering, V domains shown)", "VH": "B1 VH", "VL": "B1 VL with D55W", "notes": "Dual-Ig"}, "B23": {"name": "H183/L072 VL K50N (antibody, name in Kabat numbering, V domains shown)", "VH": "B1 VH", "VL": "B1 VL with D55N", "notes": "Dual-Ig"}, "B24": {"name": "H183/L072 VL K50F (antibody, name in Kabat numbering, V domains shown)", "VH": "B1 VH", "VL": "B1 VL with D55F", "notes": "Dual-Ig"}, "B25": {"name": "H183/L072 VL K50H (antibody, name in Kabat numbering, V domains shown)", "VH": "B1 VH", "VL": "B1 VL with D55H", "notes": "Dual-Ig"}, "B26": {"name": "H183/L072 VL L27bI (antibody, name in Kabat numbering, V domains shown)", "VH": "B1 VH", "VL": "B1 VL with L29I, D55K", "notes": "Dual-Ig"}, "B27": {"name": "H183/L072 VL K50P (antibody, name in Kabat numbering, V domains shown)", "VH": "B1 VH", "VL": "B1 VL with D55P", "notes": "Dual-Ig"}, "B28": {"name": "H183/L072 VL L27bW (antibody, name in Kabat numbering, V domains shown)", "VH": "B1 VH", "VL": "B1 VL with L29W, D55K", "notes": "Dual-Ig"}, "B29": {"name": "H183/L072 VL L27bP (antibody, name in Kabat numbering, V domains shown)", "VH": "B1 VH", "VL": "B1 VL with L29P, D55K", "notes": "Dual-Ig"}, "B30": {"name": "H183/L072 VL L27bE (antibody, name in Kabat numbering, V domains shown)", "VH": "B1 VH", "VL": "B1 VL with L29E, D55K", "notes": "Dual-Ig"}, "B31": {"name": "H183/L072 VL K50Q (antibody, name in Kabat numbering, V domains shown)", "VH": "B1 VH", "VL": "B1 VL with D55Q", "notes": "Dual-Ig"}, "B32": {"name": "H183/L072 VL L27bF (antibody, name in Kabat numbering, V domains shown)", "VH": "B1 VH", "VL": "B1 VL with L29F, D55K", "notes": "Dual-Ig"}, "B33": {"name": "H183/L072 VL K50E (antibody, name in Kabat numbering, V domains shown)", "VH": "B1 VH", "VL": "B1 VL with D55E", "notes": "Dual-Ig"}}, "note": "Changes are numbered by the printed parent chain."}
{"target": "T1, Human CD137 ECD (human)", "T1 construct": "entry includes C-terminal His-tag and biotin acceptor peptide; also called human CD137 extracellular domain; 4-1BB", "T1 sequence (chain, as listed by the source limits assumed)": "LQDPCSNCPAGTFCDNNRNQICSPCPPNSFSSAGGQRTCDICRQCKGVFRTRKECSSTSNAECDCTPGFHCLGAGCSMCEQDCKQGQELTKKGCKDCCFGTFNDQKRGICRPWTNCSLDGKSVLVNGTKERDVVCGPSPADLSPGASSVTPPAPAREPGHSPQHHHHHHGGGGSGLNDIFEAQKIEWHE", "assay": "Biacore SPR, vs parent H183/L072", "units": {"fold change of affinity": "fold"}}
{"binder": "B1", "fold change of affinity": 0}
{"binder": "B2", "fold change of affinity": 1}
{"binder": "B3", "fold change of affinity": 0.3}
{"binder": "B4", "fold change of affinity": 0.4}
{"binder": "B5", "fold change of affinity": 0.4}
{"binder": "B6", "fold change of affinity": 0}
{"binder": "B7", "fold change of affinity": 0.3}
{"binder": "B8", "fold change of affinity": 0.1}
{"binder": "B9", "fold change of affinity": 0.2}
{"binder": "B10", "fold change of affinity": 1.7}
{"binder": "B11", "fold change of affinity": 0}
{"binder": "B12", "fold change of affinity": 0.9}
{"binder": "B13", "fold change of affinity": 2.5}
{"binder": "B14", "fold change of affinity": 0.3}
{"binder": "B15", "fold change of affinity": 1.1}
{"binder": "B16", "fold change of affinity": 0.4}
{"binder": "B17", "fold change of affinity": 2.9}
{"binder": "B18", "fold change of affinity": 0.3}
{"binder": "B19", "fold change of affinity": 0.2}
{"binder": "B20", "fold change of affinity": 0.2}
{"binder": "B21", "fold change of affinity": 0.1}
{"binder": "B22", "fold change of affinity": 0}
{"binder": "B23", "fold change of affinity": 0.4}
{"binder": "B24", "fold change of affinity": 0.1}
{"binder": "B25", "fold change of affinity": 0}
{"binder": "B26", "fold change of affinity": 1.1}
{"binder": "B27", "fold change of affinity": 0}
{"binder": "B28", "fold change of affinity": 0.3}
{"binder": "B29", "fold change of affinity": 0.8}
{"binder": "B30", "fold change of affinity": 0.2}
{"binder": "B31", "fold change of affinity": 0.2}
{"binder": "B32", "fold change of affinity": 0.3}
{"binder": "B33", "fold change of affinity": 0}
